According to patent US20230183322A1 (PEKING UNIVERSITY, published 2023):

Experiments:
[1] = biological target: S protein of the novel coronavirus SARS-CoV-2 (SARS-CoV-2, UniProt P0DTC2 14-1273); assay: cell-based or functional assay
[2] = biological target: biotin-labeled SARS-COV-2 RBD domain (SARS-CoV-2, UniProt P0DTC2 319-541); assay: SPR, Biacore T200, biotin-RBD on SA chip, antibody as analyte
[3] = biological target: biotin-labeled SARS-COV-2 RBD domain (SARS-CoV-2, UniProt P0DTC2 319-541); assay: SPR, Biacore T200, biotin-labeled RBD on SA chip, antibody as analyte, 1:1 model
[4] = biological target: spike protein (Spike, S protein) of SARS-CoV-2 (SARS-CoV-2, UniProt P0DTC2 14-1273); assay: cell-based or functional assay

Row | Binder | IC50 for neutralizing SARS-CoV-2 pseudovirus (Huh-7 cells, luciferase) [1] [µg/mL] | Kd [2] [nM] | Kd [3] [nM] | IC50, Plaque Reduction Neutralization Test (PRNT), SARS-CoV-2 euvirus [4] [µg/mL]
1 | ABU-386 (antibody, V domains shown) VH: EVQLVESGGGLVQPGGSLRLSCAASGVTVSSNYMSWVRQAPGKGLEWVSAVYSGGSTYYADSVKGRFTISRHNSKNTLYLQMKSLRPEDTAIYYCARLINHYYDSSGDGGAFDIWGQGTMVTVSS VL: QSALTQPASVSGSPGQSITISCTGTSSDVGSYNLVSWYQQRPGKAPKLILYEVTKRPSGVSNRFSGSKSGNTASLAISGLQAEDEADYYCCSYAGSSTWVFGGGTKLTVL | < 0.1 | < 10 | – | –
2 | ABU-379 (antibody, V domains shown) VH: EVQLVESGGGLVQPGGSLRLSCAASGFIVSSNYMSWVRQAPGKGLEWVSVIYSGGSTYYADSVKGRFTISRDNSKNTLYLRMNSLRAEDTAVYYCARAPYCSSRSCETWGQGTLVTVSS VL: DIQMTQSPSSLSASVGDRVTITCQASQDIRNYLNWYQQKPGKAPNLLIYDASNLETGVPSRFSGSGSGTDFTFTINSLQPEDIATYYCQQYDNLPITFGQGTRLEIK | < 0.5 | < 10 | – | –
3 | ABU-380 (antibody, V domains shown) VH: EVQLVESGGGLVQPGGSLRLSCAASGFTVSSNYMSWVRQAPGKGLEWVSLIYPGGSTYYADSVEGRFTISRDNSKNTLYLQMNSLRAEDTAVYYCAREIRVITPVEVWGQGTLVTVSS VL: DIQMTQSPSSLSASVGDRVTITCQASQDINKYLNWYQLKPGKAPNLLIYDASNLETGVPSRFSGSGSGTDFTFTISSLQPEDIATYYCHQYDNLPRTFGQGTKVEIK | < 0.1 | < 1 | – | –
4 | ABU-391 (antibody, V domains shown) VH: EVQLVESGGGLIQPGGSLRLSCAASGFIVSSNYMSWVRQAPGKGLEWVSVIYSGGSTYYADSVKGRFTISRDNSKNTLYLQMNSLRAEDTAVYYCARDYGDYYFDYWGQGTLVTVSS VL: not shown | < 1 | < 20 | – | –
5 | ABU-392 (antibody, V domains shown) VH: EVQLVESGGGLIQPGGSLRLSCAASEFIVSRNYMSWVRQAPGKGLEWVSVIYSGGSTYYADSVKGRFTISRDNSKNTLNLQMNSLRAEDTAVYYCARDYGDYYFDYWGQGTLVTVSS VL: EIVLTQSPGTLSLSPGERATLSCRASQGVSSFLAWYQQKPGQAPRLLIHGASSRATGIPDRFSGSGSGTDFTLTITRLEPEDFAVYYCQQYGSSPRTFGQGTKVEIK | < 0.1 | < 10 | – | –
6 | antigen-binding unit ABU-367 (antibody, V domains shown) VH: EVQLVESGGGLIQPGGSLRLSCAASGIIVSSNYMTWVRQAPGKGLEWVSVIYSGGSTFYADSVKGRFTISRDNSKNTLYLQMSSLRAEDTAVYYCARDLGPYGMDVWGQGTTVTVSS VL: DIQLTQSPSFLSASVGDRVTITCRASQGISSDLAWYQQKPGKAPNLLIYAASTLQSGVPSRFSGSGSGTEFTLTISSLQPEDFATYYCQQLNSDLYTFGQGTKLEIK | – | – | 0.18 | –
7 | ABU-395 (antibody, V domains shown) VH: EVQVVESGGGLVQPGGSLRLSCAASGFTVSFNYMSWVRQAPGKGLEWVSVIYPGGSTYYADSVKGRFTISRHNSKNTVYLQMNSLRAEDTAVYYCARDYGDFYFDYWGQGTLVTVSS VL: not shown | < 0.1 | < 10 | – | –
8 | antigen-binding unit ABU-190 (antibody, V domains shown) VH: EVQLVESGGGLIQPGGSLRLSCAASGITVSSNYMSWVRQAPGKGLEWVSVIYSGGSTDYADSVKGRFTISRDKSKNTLYLQMNSLRAEDTAVYYCARDLGEAGGMDVWGQGTTVTVSS VL: AIQLTQSPSSLSASVGDRVTITCRASQGISSYLAWYQQKPGKAPKLLIYAASTLQSGVPSRFSGSGSGTDFTLTISSLQPEDFATYYCQQLNSYPPAFGGGTKVEIK | – | – | – | 0.8
9 | ABU-381 (antibody, V domains shown) VH: EVQLVESGGGLVQPGGSLRLSCAVSGFIVSRNYMTWVRQAPGKGLEWVSLIYSGGSTFYTNSVKGRFTISRDNSKNTLYLQMDSLRAEDTAVYYCARGPYPRFDYWGQGTLVTVSS VL: not shown | < 0.1 | < 1 | – | –
10 | antigen-binding unit ABU-174 (antibody, V domains shown) VH: QVQLQQWGAGLLKPSETLSLTCAVYGGSFSDYYWNWIRRPPGKGLEWIGEITHSGSTNYNPSLKSRVTISVDTSKNQFSLKLSSVTAADTAVYYCARGQGYGRVLLWFGEWGQGTLVTVSS VL: EIVLTQSPATLSLSPGERATLSCRASQSVSTYLAWYQQKPGQAPRLLIYDASNRATGIPARFSGSGSGTDFTLTISSLEPEDFAVYYCQQRSNWITFGQGTRLEIK | – | – | – | 0.5
11 | antigen-binding unit ABU-297 (antibody, V domains shown) VH: EVQLLESGGGVVQPGGSLRLSCAASGFAFTTYAMNWVRQAPGRGLEWVSAISDGGGSAYYADSVKGRFTISRDNSKNTLYLQMNSLRAEDTAVYYCAKTRGRGLYDYVWGSKDYWGQGTLVTVSS VL: not shown | – | – | 0.824 | –
